Results reported in patent US20120121504A1 (UNITED STATES OF AMERICA AS REPRESENTED BY THE SECRETARY …, published 2012).
Ends that are not written are not given here.

Legend:
human CD52 [1] = target: T1, human CD52 (human, UniProt P31358 25-36, ends and bridges not checked); test: flow cytometry, MFI ratio grade (sample over background), third party B cells
T1 construct: whole, on cells; also called CD52 antigen
T1 chain (looked up): GQNDTSQTSSPS

human CD52 [2] = target: T1, human CD52; test: flow cytometry, MFI ratio grade (sample over background), allogeneic B cells

- MFI ratio (sample over background) (human CD52 [1]): > 100 ratio
- MFI ratio (sample over background) (human CD52 [2]): > 100 ratio
B1: alemtuzumab (humanized anti-human CD52 mAb with human IgG1 kappa constant domains) (antibody, V domains shown)
VH: QVQLQESGPGLVRPSQTLSLTCTVSGFTFTDFYMNWVRQPPGRGLEWIGFIRDKAKGYTTEYNPSVKGRVTMLVDTSKNQFSLRLSSVTAADTAVYYCAREGHTAAPFDYWGQGSLVTVSS
VL: DIQMTQSPSSLSASVGDRVTITCKASQNIDKYLNWYQQKPGKAPKLLIYNTNNLQTGVPSRFSGSGSGTDFTFTISSLQPEDIATYYCLQHISRPRTFGQGTKVEIKR
